The NTF2 design screens of Basanta et al. (2020)

Test: protease stability score; higher = more stable; yeast display proteolysis, trypsin and chymotrypsin;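 further: relative to predicted unfolded state with 0 unfolded-like and 1 meaning tenfold more protease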
Work on “DEKERESEEFIRRFISVYETGDWKTMFELADPHTRMIDIVNGRDIEIIGREAIRHIFEERMRLLGIKHFHIDHSSRQGNKYHQKVTIRVDGQEIEAHVHVIVVDGVLKQIEVRSK” yielded a protease stability score of 1.06.
“SEEHEKLHHLMELMLNAITTGDWEIIEHLADPNVRIDQGEWHDHGREKLIHIHELVRERMGIKHVEVRDSRMFHINGVVVIILRLDLNVNGKHRFEILRLQFRKVDGQWVMHSLDIELR” gave a protease stability score of 1.74.
“HEDKQMMEEAVKLWIETSLTGDWRTFHRLADPHVKLQQGDKDLHGREDTRELMEKLGLDRVDIHIRKFRLYDGRIELHVEENFNGKVFEIFIDMRKVDGRWELHRVELR” gave a protease stability score of 1.43.
Work on “DEDVKLALHIIHLFIRALSTGNEELVKTYADPHWRLEIGDKILHGMDEWKEDLKELRIYYHHVTFRDYEIIDGRIIIHTELDGRLEVGDYEQRIRTRTHVFVDKINGRWDITHVEVR” yielded a protease stability score of 1.2.
Sequence “DEREEEMQRIMEDFIRAWSTGDEKRLKELIDPRDRMIINGKERHGMEEWKTLWETLGINYIDIEHVHLQGEKARIHGTSKFNGRHHEVRIEIRVVDGRFTEVHVDII” has a protease stability score of 1.78.
“HDEEKHDREYVEEMLEVWLTGDFDRIMHLFDPNARQEVNGVDIVGRERLHEFNRRWEEDMGFDHSHTHHVEVVNGRVHSDTRVHFNGREMETHLDLRVVNGRIKSIRVSYN” showed a protease stability score of 0.094.
“SEEEDFMRQVYHWFLELWLTGDEDIFKKLADPDTLLDWNGVQSVGMEEFHRLLHEMEERLGVKHKEYKRFRIQGNKVHLDLVHEFNGRRIKTEIVVVVVNGRFKEIRIRHH” showed a protease stability score of 1.79.
Sequence “DEEHRHAHWLLNVLTKAMITGDESLMEHLLDPNARLIQGEFELVGRERIIDWFHHIRTHEVRIHVEHFDVVNGKAIIFGHVTVDGTVNGQRREFRFDQTYFSSKIDGKWVIESLEME” has a protease stability score of 1.3.
“REDEEMIEHAVRREIHSYYTGDWEKHYKLLDPNALIHIDINGRQENIHGREEIMRFWYERFKDFGFDHMEIKRITLVDGKLHIFSIIDVNGVRIELEIIIVKVDGRWRLHTMRYHYH” gave a protease stability score of 0.652.
With “SEEEEKAVKVTEEILHNLLTGDWERLAEMLDPDTWLHQGDKHRHGREQVLKHFSDFYNEIRIEDFKIHDITVQGEKAISHGHVKMRYGDKVRETSVRFVLIVIDGRIDQIEVHVH” the protease stability score was 1.8.
“DEERRRDEEDWRFLEHVWETGDFDALVNMIDPNVRIEFEGRTHHGREDASHLIKRLGVKYFEVKSQNIQGDYIIDDVEFRVGEYRTRVRIIIHKIDGKWYIHSLHIL” showed a protease stability score of 0.913.
“DEEEKLLEQLARLILHNLLTGDWKSHMNNADPDVKVTVNGVLVHGREDMSHLYRELLERIPNIQIRVDRVDIQGDKVHARLWVEFDGKERQSELHVRIVNGRIKEETYHEK” gave a protease stability score of 0.937.
With “SEIEEEIEQAYKLTKHHWETGDEKDIRRNADPHVRVYFNGREYHGWEVLHEVLRLMGAKHVEIHRYEIQGEYVHIDSEVRQGDKRFRMHVESYKVNGRWFIETVFIK” the protease stability score was 0.749.
Work on “SEDEKIAHKVHRLMFESLRTGDEEFLRRMLDPNARFVVNGQDLVGMEFLDHTLREMRVREIRWRSSDVEIQGDKIINHSKVHSRFDQGEKETHVEVHIIIIYTKIDGQWHVKSVIIEYK” yielded a protease stability score of 1.12.
“SEINERTERLMKWLLHAILTGDEDLLSTLADPNVRVIVGDKSVIGMESWYRLFEEELRHLGIKHMQLDPRHVDTQGDKARVETRLRVWVDGVELTHETRLHLDVVNGRITKISIRIH” showed a protease stability score of 1.16.
For “DEDEEQTRRAWKINLEQWLTGDEELLDRNLDPDVRNDVNGVRLHGMELLTEMLHRFIEKLKGATIRLKDFRLRFYGNKIEVRVETIVHVNGVQIHVELIFIATKVDGRWRIHEISHHNR”, the protease stability score was 0.868.
Sequence “DEDKDVTKRLFELLRQADETGDEHTMTRLLDPHAQLVVNGRRVHGMEFVWELLLRLRHRYDHSHWRLHDARTQGEYMHLDVRLHLNIDGKRVNIEMHLIILKIDGVWFVHSVEIH” has a protease stability score of 0.45.
Sequence “SDLEEEINRFLTELLRDWETGNWKAFADLLDPHTRVLIDGKEHHGREIFLEHNHQLGIKHREFELKKFRIFENRVEFDGTLHLVYGDKRVHREIHIIILKIDGRWKITEIRFL” has a protease stability score of 1.54.
In the case of “NEMDEHARHFAELFLRLMRTGDEETTEKLADPHVKVVIGDFEFHGWKMLSIFLREIRIHDIRLEDHRTQGNKSIIHGRTDGEINGQRYETELYIELHLVNGRLKSMRFEWR”, the protease stability score is reported as 0.698.
In the case of “SEEKEKAEHVVRQFLRVILTGDWERIEELMDPHVRFRVDVDGQTLHNHGRERLIDWYAKVKGLRNNLREIHIFENRAELHFESTIGDKHFKERIEIHIVDGRFKSVTFQFE”, the protease stability score is reported as 1.42.
“SEEDKESEEAFKIAKELLETGDEDLHKHLFDPNARLVVGDKHHHGRELLVKFWSDFGIDHIEIHDIKLVNGRLDTDTTVRFNGRTLKMRIIIIKVNGKWEIKSMTVH” showed a protease stability score of 0.667.
Sequence “DLDNILMKLFLKEVEEVERTGDERLIHELADPNVRVEQGDKKFHGRHEAVRIYMELGIKHSRLTDVKFFEGHVLIHVRIHVDGRDIDLTIFMHKIDGRWIIKSMKQD” has a protease stability score of 1.16.
“SEEERHIKEFTRRLLHVFITGDEHELKELFDPNTRSIFNGVDVHGWKEITRFIREIREKEVRIRDVKVFNGRVHLEGHSNMEWNGQERRSDVEMHFDVINGQVHEIEIRIR” gave a protease stability score of 1.17.
“SEEEESIHEAQKVFLKIIMTGDWEEIARRLDPDVRLHIGNKKVHGREEAIEFFRKFLEEIRIHDEELKEFSSIDGRVHIRGEIDGTINGVRDRVEVHNVIWKFNGRWFISFREER” showed a protease stability score of 1.36.
Work on “SEDDKMQEIAVELLEHTLKTGDEHTSKKLVDPHVRLQIGDKEHHGRDEVTRWLTELAQRADHMHIEIKDMFNVNGVVIMHGTLKIHIGDKELRLDVEWIILKYNGKWLIHSIHIR” yielded a protease stability score of 1.94.
